Experimental data published in the supplement of paper PMC12458215.
± gives the uncertainty stated by the source.

System: HEK293T
Test: plasma membrane surface immunostaining intensity (anti-HA, deep receptor scanning) (arbitrary fluorescence units); higher = higher plasma membrane expression

Sequence | plasma membrane surface immunostaining intensity (GPCR class: A (Olfactory)) | plasma membrane surface immunostaining intensity (GPCR class: A) | also measured
MQGENFTIWSIFFLEGFSQYPGLEVVLFVFSLVMYLTTLLGNSTLILITILDSRLKTPMYLFLGNLSFMDICYTSASVPTLLVNLLSSQKTIIFSGCAVQMYLSLAMGSTECVLLAVMAYDRYVAICNPLRYSIIMNRCVCARMATVSWVTGCLTALLETSFALQIPLCGNLIDHFTCEILAVLKLACTSSLLMNTIMLVVSILLLPIPMLLVCISYIFILSTILRITSAEGRNKAFSTCGAHLTVVILYYGAALSMYLKPSSSNAQKIDKIISLLYGVLTPMLNPIIYSLRNKEVKDAMKKLLGKITLHQTHEHL [OR2K2] | 144 ± 20 |  | 
MQGLNHTSVSEFILVGFSAFPHLQLMLFLLFLLMYLFTLLGNLLIMATVWSERSLHMPMYLFLCALSITEILYTVAIIPRMLADLLSTQRSIAFLACASQMFFSFSFGFTHSFLLTVMGYDRYVAICHPLRYNVLMSLRGCTCRVGCSWAGGLVMGMVVTSAIFHLAFCGHKEIHHFFCHVPPLLKLACGDDVLVVAKGVGLVCITALLGCFLLILLSYAFIVAAILKIPSAEGRNKAFSTCASHLTVVVVHYGFASVIYLKPKGPQSPEGDTLMGITYTVLTPFLSPIIFSLRNKELKVAMKKTCFTKLFPQNC [OR10H5] | 129 ± 21 |  | 
MQGPLLLPGLCFLLSLFGAVTQKTKTSCAKCPPNASCVNNTHCTCNHGYTSGSGQKLFTFPLETCNDINECTPPYSVYCGFNAVCYNVEGSFYCQCVPGYRLHSGNEQFSNSNENTCQDTTSSKTTEGRKELQKIVDKFESLLTNQTLWRTEGRQEISSTATTILRDVESKVLETALKDPEQKVLKIQNDSVAIETQAITDNCSEERKTFNLNVQMNSMDIRCSDIIQGDTQGPSAIAFISYSSLGNIINATFFEEMDKKDQVYLNSQVVSAAIGPKRNVSLSKSVTLTFQHVKMTPSTKKVFCVYWKSTGQGSQWSRDGCFLIHVNKSHTMCNCSHLSSFAVLMALTSQEEDPVLTVITYVGLSVSLLCLLLAALTFLLCKAIRNTSTSLHLQLSLCLFLAHLLFLVGIDRTEPKVLCSIIAGALHYLYLAAFTWMLLEGVHLFLTARNLTVVNYSSINRLMKWIMFPVGYGVPAVTVAISAASWPHLYGTADRCWLHLDQGFMWSFLGPVCAIFSANLVLFILVFWILKRKLSSLNSEVSTIQNTRMLAFKATAQLFILGCTWCLGLLQVGPAAQVMAYLFTIINSLQGFFIFLVYCLLSQQVQKQYQKWFREIVKSKSESETYTLSSKMGPDSKPSEGDVFPGQVKRKY [ADGRE3] |  |  | plasma membrane surface immunostaining intensity (GPCR class: B): 344 ± 13
MQLNNNVTEFILLGLTQDPFWKKIVFVIFLRLYLGTLLGNLLIIISVKTSQALKNPMFFFLFYLSLSDTCLSTSITPRMIVDALLKKTTISFSECMIQVFSSHVFGCLEIFILILTAVDRYVDICKPLHYMTIISQWVCGVLMAVAWVGSCVHSLVQIFLALSLPFCGPNVINHCFCDLQPLLKQACSETYVVNLLLVSNSGAICAVSYVMLIFSYVIFLHSLRNHSAEVIKKALSTCVSHIIVVILFFGPCIFMYTCLATVFPMDKMIAVFYTVGTSFLNPVIYTLKNTEVKSAMRKLWSKKLITDDKR [OR4C16] | 162 ± 72 |  | 
MQMADAATIATMNKAAGGDKLAELFSLVPDLLEAANTSGNASLQLPDLWWELGLELPDGAPPGHPPGSGGAESADTEARVRILISVVYWVVCALGLAGNLLVLYLMKSMQGWRKSSINLFVTNLALTDFQFVLTLPFWAVENALDFKWPFGKAMCKIVSMVTSMNMYASVFFLTAMSVTRYHSVASALKSHRTRGHGRGDCCGRSLGDSCCFSAKALCVWIWALAALASLPSAIFSTTVKVMGEELCLVRFPDKLLGRDRQFWLGLYHSQKVLLGFVLPLGIIILCYLLLVRFIADRRAAGTKGGAAVAGGRPTGASARRLSKVTKSVTIVVLSFFLCWLPNQALTTWSILIKFNAVPFSQEYFLCQVYAFPVSVCLAHSNSCLNPVLYCLVRREFRKALKSLLWRIASPSITSMRPFTATTKPEHEDQGLQAPAPPHAAAEPDLLYYPPGVVVYSGGRYDLLPSSSAY [RXFP3] |  | 979 ± 290 | 
MQPESGANGTVIAEFILLGLLEAPGLQPVVFVLFLFAYLVTVRGNLSILAAVLVEPKLHTPMYFFLGNLSVLDVGCISVTVPSMLSRLLSRKRAVPCGACLTQLFFFHLFVGVDCFLLTAMAYDRFLAICRPLTYSTRMSQTVQRMLVAASWACAFTNALTHTVAMSTLNFCGPNVINHFYCDLPQLFQLSCSSTQLNELLLFAVGFIMAGTPMALIVISYIHVAAAVLRIRSVEGRKKAFSTCGSHLTVVAIFYGSGIFNYMRLGSTKLSDKDKAVGIFNTVINPMLNPIIYSFRNPDVQSAIWRMLTGRRSLA [OR3A1] | 125 ± 18 |  | 
MQPPPSLCGRALVALVLACGLSRIWGEERGFPPDRATPLLQTAEIMTPPTKTLWPKGSNASLARSLAPAEVPKGDRTAGSPPRTISPPPCQGPIEIKETFKYINTVVSCLVFVLGIIGNSTLLRIIYKNKCMRNGPNILIASLALGDLLHIVIDIPINVYKLLAEDWPFGAEMCKLVPFIQKASVGITVLSLCALSIDRYRAVASWSRIKGIGVPKWTAVEIVLIWVVSVVLAVPEAIGFDIITMDYKGSYLRICLLHPVQKTAFMQFYKTAKDWWLFSFYFCLPLAITAFFYTLMTCEMLRKKSGMQIALNDHLKQRREVAKTVFCLVLVFALCWLPLHLSRILKLTLYNQNDPNRCELLSFLLVLDYIGINMASLNSCINPIALYLVSKRFKNCFKSCLCCWCQSFEEKQSLEEKQSCLKFKANDHGYDNFRSSNKYSSS [EDNRB] |  | 794 ± 140 | 
MQPYTKNWTQVTEFVMMGFAGIHEAHLLFFILFLTMYLFTLVENLAIILVVGLDHRLRRPMYFFLTHLSCLEIWYTSVTVPKMLAGFIGVDGGKNISYADCLSQLFIFTFLGATECFLLAAMAYDRYVAICMPLHYGAFVSWGTCIRLAAACWLVGFLTPILPIYLLSQLTFYGPNVIDHFSCDASPLLALSCSDVTWKETVDFLVSLAVLLASSMVIAVSYGNIVWTLLHIRSAAERWKAFSTCAAHLTVVSLFYGTLFFMYVQTKVTSSINFNKVVSVFYSVVTPMLNPLIYSLRNKEVKGALGRVFSLNFWKGQ [OR6Q1] | 392 ± 120 |  | 
MQRANHSTVTQFILVGFSVFPHLQLMLFLLFLLMYLFTLLGNLLIMATVWSERSLHTPMYLFLCALSVSEILYTVAIIPRMLADLLSTQRSIAFLACASQMFFSFSFGFTHSFLLTVMGYDRYVAICHPLRYNVLMSPRGCACLVGCSWAGGLVMGMVVTSAIFHLAFCGHKEIHHFACHVPPLLKLACGDDVLVVAKGVGLVCITALLGCFLLILLSYAFIVAAILKIPSAEGRNKAFSTCASHLTVVVVHYGFASVIYLKPKSPQSLEGDTLMGITYTVLTPFLSPIIFSLRNKELKVAMKKTFFSKLYPEKNVMM [OR10H1] | 121 ± 17 |  | 
MQRPGPRLWLVLQVMGSCAAISSMDMERPGDGKCQPIEIPMCKDIGYNMTRMPNLMGHENQREAAIQLHEFAPLVEYGCHGHLRFFLCSLYAPMCTEQVSTPIPACRVMCEQARLKCSPIMEQFNFKWPDSLDCRKLPNKNDPNYLCMEAPNNGSDEPTRGSGLFPPLFRPQRPHSAQEHPLKDGGPGRGGCDNPGKFHHVEKSASCAPLCTPGVDVYWSREDKRFAVVWLAIWAVLCFFSSAFTVLTFLIDPARFRYPERPIIFLSMCYCVYSVGYLIRLFAGAESIACDRDSGQLYVIQEGLESTGCTLVFLVLYYFGMASSLWWVVLTLTWFLAAGKKWGHEAIEANSSYFHLAAWAIPAVKTILILVMRRVAGDELTGVCYVGSMDVNALTGFVLIPLACYLVIGTSFILSGFVALFHIRRVMKTGGENTDKLEKLMVRIGLFSVLYTVPATCVIACYFYERLNMDYWKILAAQHKCKMNNQTKTLDCLMAASIPAVEIFMVKIFMLLVVGITSGMWIWTSKTLQSWQQVCSRRLKKKSRRKPASVITSGGIYKKAQHPQKTHHGKYEIPAQSPTCV [FZD10] |  |  | plasma membrane surface immunostaining intensity (GPCR class: F): 2420 ± 580
MRAPGALLARMSRLLLLLLLKVSASSALGVAPASRNETCLGESCAPTVIQRRGRDAWGPGNSARDVLRARAPREEQGAAFLAGPSWDLPAAPGRDPAAGRGAEASAAGPPGPPTRPPGPWRWKGARGQEPSETLGRGNPTALQLFLQISEEEEKGPRGAGISGRSQEQSVKTVPGASDLFYWPRRAGKLQGSHHKPLSKTANGLAGHEGWTIALPGRALAQNGSLGEGIHEPGGPRRGNSTNRRVRLKNPFYPLTQESYGAYAVMCLSVVIFGTGIIGNLAVMCIVCHNYYMRSISNSLLANLAFWDFLIIFFCLPLVIFHELTKKWLLEDFSCKIVPYIEVASLGVTTFTLCALCIDRFRAATNVQMYYEMIENCSSTTAKLAVIWVGALLLALPEVVLRQLSKEDLGFSGRAPAERCIIKISPDLPDTIYVLALTYDSARLWWYFGCYFCLPTLFTITCSLVTARKIRKAEKACTRGNKRQIQLESQMNCTVVALTILYGFCIIPENICNIVTAYMATGVSQQTMDLLNIISQFLLFFKSCVTPVLLFCLCKPFSRAFMECCCCCCEECIQKSSTVTSDDNDNEYTTELELSPFSTIRREMSTFASVGTHC [GPR37] |  | 158 ± 26 | 
MRAVFIQGAEEHPAAFCYQVNGSCPRTVHTLGIQLVIYLACAAGMLIIVLGNVFVAFAVSYFKALHTPTNFLLLSLALADMFLGLLVLPLSTIRSVESCWFFGDFLCRLHTYLDTLFCLTSIFHLCFISIDRHCAICDPLLYPSKFTVRVALRYILAGWGVPAAYTSLFLYTDVVETRLSQWLEEMPCVGSCQLLLNKFWGWLNFPLFFVPCLIMISLYVKIFVVATRQAQQITTLSKSLAGAAKHERKAAKTLGIAVGIYLLCWLPFTIDTMVDSLLHFITPPLVFDIFIWFAYFNSACNPIIYVFSYQWFRKALKLTLSQKVFSPQTRTVDLYQE [TAAR5] |  | 381 ± 140 | 
MRFTFTSRCLALFLLLNHPTPILPAFSNQTYPTIEPKPFLYVVGRKKMMDAQYKCYDRMQQLPAYQGEGPYCNRTWDGWLCWDDTPAGVLSYQFCPDYFPDFDPSEKVTKYCDEKGVWFKHPENNRTWSNYTMCNAFTPEKLKNAYVLYYLAIVGHSLSIFTLVISLGIFVFFRSLGCQRVTLHKNMFLTYILNSMIIIIHLVEVVPNGELVRRDPVSCKILHFFHQYMMACNYFWMLCEGIYLHTLIVVAVFTEKQRLRWYYLLGWGFPLVPTTIHAITRAVYFNDNCWLSVETHLLYIIHGPVMAALVVNFFFLLNIVRVLVTKMRETHEAESHMYLKAVKATMILVPLLGIQFVVFPWRPSNKMLGKIYDYVMHSLIHFQGFFVATIYCFCNNEVQTTVKRQWAQFKIQWNQRWGRRPSNRSARAAAAAAEAGDIPIYICHQELRNEPANNQGEESAEIIPLNIIEQESSA [CALCR] |  |  | plasma membrane surface immunostaining intensity (GPCR class: B): 5000 ± 720
